Experimental data reported in US20120210456A1 (MENDEL BIOTECHNOLOGY, published 2012).

Target: T1, SALT TOLERANCE HOMOLOG2 (STH2) (Arabidopsis thaliana, UniProt Q9LQZ7 1-331, limits assumed)
T1 construct: also called G1482
T1 sequence: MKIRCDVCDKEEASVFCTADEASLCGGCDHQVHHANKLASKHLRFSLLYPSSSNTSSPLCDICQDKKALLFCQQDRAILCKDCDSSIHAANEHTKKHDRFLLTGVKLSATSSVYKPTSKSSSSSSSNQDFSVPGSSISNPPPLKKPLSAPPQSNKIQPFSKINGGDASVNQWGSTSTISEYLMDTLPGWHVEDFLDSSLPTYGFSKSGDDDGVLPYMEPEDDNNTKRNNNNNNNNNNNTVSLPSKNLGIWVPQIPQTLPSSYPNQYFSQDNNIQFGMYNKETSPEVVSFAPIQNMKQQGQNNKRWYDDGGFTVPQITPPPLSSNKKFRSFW
Experiment: in vitro and protoplast based studies (methods not described)

B1: G1988 (other)
chain: MVSFCELCGAEADLHCAADSAFLCRSCDAKFHASNFLFARHFRRVICPNCKSLTQNFVSGPLLPWPPRTTCCSESSSSSCCSSLDCVSSSELSSTTRDVNRARGRENRVNAKAVAVTVADGIFVNWCGKLGLNRDLTNAVVSYASLALAVETRPRATKRVFLAAAFWFGVKNTTTWQNLKKVEDVTGVSAGMIRAVESKLARAMTQQLRRWRVDSEEGWAENDNV
notes: also called B-box zinc finger transcription factor G1988
binding result: binds
